Results as given in paper PMC8635156, “Structural and Functional Analysis of SsaV Cytoplasmic Domain and Variable Linker States in the Context of the InvA-SsaV Chimeric Protein” (Microbiology Spectrum, 2021).

Legend:
[1] = biological target: the molecule itself; test: SEC; gel filtration of purified cytoplasmic domains (Superdex 200 Increase 10/300 GL; 20 mM Tris-HCl pH 8.0, 150 mM NaCl); Fig. 1B at two salt concentrations (physiological and high salt); Fig. 4D wild type and variants
[2] = biological target: the molecule itself; test: cryo-EM structure; single particle analysis of the GDN-solubilised chimera ISS (~10 mg/ml); C9 symmetry, 2.11 Å for the SsaVC part; TM and linker regions hardly visible

B1: SsaV cytoplasmic domain (SsaVC), residues 346-682 (domain or fragment)
chain: MVPGACPLILRLSPTLHSADLIRDIDAMRWFLFEDTGVPLPEVNIEVLPEPTEKLTVLLYQEPVFSLSIPAQADYLLIGADASVVGDSQTLPNGMGQICWLTKDMAHKAQGFGLDVFAGSQRISALLKCVLLRHMGEFIGVQETRYLMNAMEKNYSELVKELQRQLPINKIAETLQRLVSERVSIRDLRLIFGTLIDWAPREKDVLMLTEYVRIALRRHILRRLNPEGKPLPILRIGEGIENLVRESIRQTAMGTYTALSSRHKTQILQLIEQALKQSAKLFIVTSVDTRRFLRKITEATLFDVPILSWQELGEESLIQVVESIDLSEEELADNEE
notes: SsaV (SctV of the SPI-2 T3SS), Salmonella enterica serovar Typhimurium, residues 346-682 (cytoplasmic domain with the last residues of the linker); The His6 tag is thrombin-cleavable (pET15b); the purification as described names no cleavage step; also called SctVC of SPI-2; source: E. coli BL21, purified (Ni-NTA, Hitrap Q anion exchange, SEC)
stoichiometry N [1]: 9

B2: InvATM-SsaVL-SsaVC chimeric full-length protein (ISS) (other)
chain: MLLSLLNSARLRPELLILVLMVMIISMFVIPLPTYLVDFLIALNIVLAILVFMGSFYIDRILSFSTFPAVLLITTLFRLALSISTSRLILIEADAGEIIATFGQFVIGDSLAVGFVVFSIVTVVQFIVITKGSERVAEVAARFSLDGMPGKQMSIDADLKAGIIDADAARERRSVLERESQLYGSFDGAMKFIKGDAIAGIIIIFVNFIGGISVGMTRHGMDLSSALSTYTMLTIGDGLVAQIPALLIAISAGFIVTRVNGDSDNMGRNIMTQLLNNPFVLVVTAILTISMGTLPGFPLPVFVILSVVLSVLFYFIRRKKSVVSANGVEAPEKDSMVPGACPLILRLSPTLHSADLIRDIDAMRWFLFEDTGVPLPEVNIEVLPEPTEKLTVLLYQEPVFSLSIPAQADYLLIGADASVVGDSQTLPNGMGQICWLTKDMAHKAQGFGLDVFAGSQRISALLKCVLLRHMGEFIGVQETRYLMNAMEKNYSELVKELQRQLPINKIAETLQRLVSERVSIRDLRLIFGTLIDWAPREKDVLMLTEYVRIALRRHILRRLNPEGKPLPILRIGEGIENLVRESIRQTAMGTYTALSSRHKTQILQLIEQALKQSAKLFIVTSVDTRRFLRKITEATLFDVPILSWQELGEESLIQVVESIDLSEEELADNEE
notes: InvA, Salmonella enterica serovar Typhimurium, transmembrane region: what is left when residues 316-685 are replaced (residues 1-315); SsaV, Salmonella enterica serovar Typhimurium, residues 326-682 (linker SsaVL and cytoplasmic domain SsaVC); Eluted from the Strep-Tactin beads after the SUMO tag was cleaved on the beads; also called InvATM-SsaVC chimera; chimeric ISS; source: E. coli BL21, …
stoichiometry N [2]: 9
